Source: US20250011363A1, “OPTIMIZED SHORTENED PEPTIDE THAT BINDS TO ACETYLCHOLINE RECEPTOR, AND USE THEREOF” (SKINMED CO., LTD., priority 2021, published 2025)

The substances below were run against acetylcholine receptor (Homo sapiens, UniProt P02708) (assay: SPR binding affinity (RU) of optimized 5mer/6mer/7mer peptides, Examples 6-7). Conditions: 6mer-1 Top sequence; SPR; peptides tested at 10 μM.
Protocol: Based on the frequencies of occurrence of the top 7 amino acids from Table 7 in Example 5, 600 peptides comprising these amino acids (top combinations) and those comprising the 13 less frequently occurring amino acids (bottom combinations) were synthesized for each series of 5mer, 6mer-1, and 6mer-2. The binding affinity of each sequence for the acetylcholine receptor was measured using Surface Plasmon Resonance (SPR) analysis method. The peptides were tested at a concentration of 10 μM. Additionally, the average binding affinities of the top and bottom combinations in each series are depicted in FIGS. 5-7.
Representative peptides identified in Example 6, two in each library, including 5mers (73, 311) and 6mers-1 (43, 210) and 6mers-2 (136, 233), were compared with the pre-optimized 6mer, 5mer-ND, and Synake.

Chain of acetylcholine receptor (P02708 21-457): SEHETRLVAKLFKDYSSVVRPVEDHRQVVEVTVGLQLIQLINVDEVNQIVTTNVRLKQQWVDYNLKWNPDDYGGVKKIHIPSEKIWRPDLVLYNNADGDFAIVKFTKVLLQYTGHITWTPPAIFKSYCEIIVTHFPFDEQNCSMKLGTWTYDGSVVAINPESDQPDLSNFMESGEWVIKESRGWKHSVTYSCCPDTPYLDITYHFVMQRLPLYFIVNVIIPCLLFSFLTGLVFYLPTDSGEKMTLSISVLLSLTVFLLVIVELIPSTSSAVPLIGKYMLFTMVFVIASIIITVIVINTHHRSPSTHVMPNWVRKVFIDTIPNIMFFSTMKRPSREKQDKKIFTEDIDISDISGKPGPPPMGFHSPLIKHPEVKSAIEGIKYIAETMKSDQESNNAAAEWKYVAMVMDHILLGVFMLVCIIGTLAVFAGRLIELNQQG

Substance | Binding affinity [Ru]
6mer-1-322 (KRGVQR) | 146
6mer-1-250 (RRVICR) | 142
6mer-1-300 (RRWQQK) | 148
6mer-1-337 (RKSRRR) | 144
6mer-1-332 (KKRVQK) | 122
6mer-1-229 (RRRLLR) | 153
6mer-1-1225 (RKLICK) | 142
6mer-1-297 (RRGFSK) | 139
6mer-1-379 (KRRISK) | 153

Same assay, conditions: 6mer-2 Top sequence; SPR; peptides tested at 10 μM

Substance | Binding affinity [Ru]
6mer-2-138 (KQRRRK) | 153
6mer-2-78 (KRYLKR) | 135
6mer-2-58 (KRLQRK) | 122
6mer-2-36 (RRLQKK) | 131
6mer-2-190 (KVYLKR) | 148

Same assay, conditions: SPR, Resonance Units; 5mer Bottom sequence (bottom combinations); peptides tested at 10 μM

Substance | Binding affinity [Ru]
5mer-1081 (RPNVR) | 13
5mer-714 (RPCAK) | 32
5mer-1001 (KPCGK) | 33
5mer-1088 (KAKKK) | 16
5mer-619 (KCSFK) | 19
5mer-760 (RIWAR) | 19
5mer-750 (KEADK) | 13
5mer-793 (KKPHR) | 19
5mer-1025 (RHKWK) | 25
5mer-622 (RKPKR) | 22
5mer-1036 (KTHMK) | 23
5mer-950 (KDADR) | 22
5mer-673 (RISPR) | 14
5mer-983 (RTTGR) | 23
5mer-654 (KEWNR) | 27
5mer-1023 (RYCKK) | 13
5mer-747 (RKTDK) | 31

Same assay, conditions: SPR, Resonance Units; peptides tested at 10 μM; 6mer-1 Bottom sequence

Substance | Binding affinity [Ru]
6mer-1-1092 (RKYHDK) | 43
6mer-1-1176 (KKADHK) | 21
6mer-1-1165 (RRATWR) | 29
6mer-1-1126 (RRHCDK) | 41
6mer-1-1183 (RKIHNK) | 35
6mer-1-1072 (KKCTPR) | 36

Same assay, conditions: SPR, Resonance Units; peptides tested at 10 μM; 6mer-1 Bottom sequence (Table 11)

Substance | Binding affinity [Ru]
6mer-1-759 (RKMTWR) | 23
6mer-1-611 (KKNCHK) | 23
6mer-1-651 (KRICWK) | 27
6mer-1-748 (RKHNGR) | 24
6mer-1-790 (KKPNPK) | 12
6mer-1-671 (KKNMVR) | 11
6mer-1-764 (RRNPFK) | 24
6mer-1-618 (RKCHVK) | 19
6mer-1-704 (RRMCER) | 16

Same assay, conditions: SPR, Resonance Units; peptides tested at 10 μM; 6mer-2 Bottom sequence

Substance | Binding affinity [Ru]
6mer-2-692 (KYTNRR) | 29
6mer-2-676 (KCTAKK) | 14
6mer-2-713 (RASWRR) | 24
6mer-2-709 (RIWPKR) | 31
6mer-2-912 (RAPIRR) | 27
6mer-2-838 (RCTVRK) | 13
6mer-2-918 (KNWMRK) | 35
6mer-2-989 (KAHNKR) | 22
6mer-2-674 (KKWERK) | 26
6mer-2-753 (RYEHRR) | 18
6mer-2-931 (RYCFKR) | 29
6mer-2-707 (RTWKRK) | 21
6mer-2-877 (KPPERR) | 17
6mer-2-706 (KFTDRK) | 23
6mer-2-878 (KETVRR) | 24
6mer-2-757 (RIPNKR) | 19
6mer-2-732 (KPTWRK) | 24
6mer-2-826 (RNTPRK) | 11

Same assay, conditions: SPR, Resonance Units; peptides tested at 10 μM; 6mer-2 Top sequence

Substance | Binding affinity [Ru]
6mer-2-417 (RWVYKK) | 151
6mer-2-416 (RWRLRR) | 131
6mer-2-405 (KGYRKK) | 137
6mer-2-541 (KGQCRK) | 126
6mer-2-428 (KVFLKK) | 142
6mer-2-497 (KSYTRR) | 148
6mer-2-453 (RLVRKK) | 141
6mer-2-523 (RGRYKR) | 146
6mer-2-454 (RSVQKK) | 133
6mer-2-553 (RSLQKK) | 124

Same assay, conditions: SPR, Resonance Units; peptides tested at 10 μM; 6mer-2 Top sequence (Table 12)

Substance | Binding affinity [Ru]
6mer-2-210 (RSQSRR) | 128
6mer-2-282 (RQQYRK) | 151
6mer-2-215 (RLYYRR) | 123
6mer-2-315 (RRQRRR) | 139
6mer-2-371 (KRLSRR) | 148
6mer-2-319 (RSRQRK) | 137
6mer-2-346 (KRFSKK) | 153

Same assay, conditions: SPR, peptides at 10 μM; 6mer-2 Bottom sequence

Substance | Binding affinity [Ru]
6mer-2-1033 (KMDEKK) | 28
6mer-2-1183 (RENNRK) | 35
6mer-2-1170 (KFTIRR) | 25
6mer-2-1080 (RKHKKK) | 23
6mer-2-1041 (RACDKR) | 22
6mer-2-1197 (KNCIKK) | 23
6mer-2-1048 (RIHNRK) | 22

Same assay, conditions: SPR, peptides tested at 10 μM; 5mer Top sequence

Substance | Binding affinity [Ru]
5mer-314 (RWYTR) | 80
5mer-32 (RQLSR) | 75
5mer-95 (RGRRK) | 68
5mer-131 (KLRRR) | 72
5mer-482 (KQFCK) | 75
5mer-47 (KGVRR) | 70
5mer-317 (RRVQR) | 86
5mer-466 (RRVRK) | 53
5mer-202 (KWYRR) | 65
5mer-166 (KSFQR) | 55
5mer-201 (RWIYR) | 62
5mer-169 (RWYRK) | 61
5mer-16 (KLYTK) | 66

Same assay, conditions: SPR, peptides tested at 10 μM; 5mer Top sequence (top combinations)

Substance | Binding affinity [Ru]
5mer-579 (RSLYK) | 53

Same assay, conditions: SPR, peptides tested at 10 μM; 6mer-1 Bottom sequence

Substance | Binding affinity [Ru]
6mer-1-1199 (KKTNKR) | 39

Same assay, conditions: SPR, peptides tested at 10 μM; 6mer-1 Bottom sequence (Table 11)

Substance | Binding affinity [Ru]
6mer-1-994 (KKHEFR) | 37
6mer-1-803 (RKMKHK) | 31
6mer-1-845 (KKIDKK) | 23
6mer-1-865 (KKMTAR) | 21
6mer-1-898 (RKATKR) | 31
6mer-1-816 (RKIDFK) | 14
6mer-1-814 (KKCNAK) | 15
6mer-1-919 (RKDHIK) | 26
6mer-1-962 (KKNCDK) | 42
6mer-1-967 (RRTEDR) | 24

Same assay, conditions: SPR, peptides tested at 10 μM; 6mer-1 Top sequence

Substance | Binding affinity [Ru]
6mer-1-489 (KKVITK) | 148
6mer-1-546 (RKLVQR) | 123
6mer-1-449 (KRGRCK) | 135
6mer-1-506 (RRRLSK) | 151
6mer-1-444 (KKWILK) | 144
6mer-1-511 (RKVYRR) | 136
6mer-1-416 (RKLIYR) | 153
6mer-1-436 (KKLFYK) | 148
6mer-1-528 (KRSYTR) | 139
6mer-1-521 (RKVISR) | 128
6mer-1-507 (RRSQSK) | 139
6mer-1-514 (KKGRSK) | 128
6mer-1-510 (KRRQSR) | 122
6mer-1-502 (RKLFSR) | 146

Same assay, conditions: SPR, peptides tested at 10 μM; 6mer-1 Top sequence (top combinations)

Substance | Binding affinity [Ru]
6mer-1-45 (RKGLTK) | 145
6mer-1-120 (RRRYSR) | 124
6mer-1-147 (KKQIQR) | 125
6mer-1-195 (KRGISR) | 122
6mer-1-105 (KKSISK) | 141
6mer-1-135 (KRQVSR) | 123
6mer-1-38 (RRQQTK) | 126
6mer-1-47 (KRRLLK) | 149

Same assay, conditions: SPR; XRRGVRR-7mer and RRGVRRX-7mer

Substance | Binding affinity, values relative to the RRGVRR sequence
3673 (RRGVRRY) [compound 3673] | 101

Same assay, conditions: SPR; XRRQRR-6mer and RRQRRX-6mer

Substance | Binding affinity, relative value to the RRQRR sequence
3623 (RRQRRV) [compound 3623] | 120

Same assay, conditions: SPR; peptides tested at 10 μM; 5mer Bottom sequence

Substance | Binding affinity [Ru]
5mer-1176 (KIHFK) | 25
5mer-895 (RFTKK) | 18
5mer-1153 (RDAPR) | 27
5mer-1149 (KETDR) | 25
5mer-858 (RIMGR) | 33
5mer-886 (RMMFR) | 21
5mer-1189 (RKMDK) | 11
